# Measured values taken from paper PMC10624902, “Structure of a membrane-bound menaquinol:organohalide oxidoreductase” (Nature Communications, 2023).
# T1: PceA2B2 complex (menaquinol:organohalide oxidoreductase, MOOR; DhPceA / DhPceB) (Desulfitobacterium hafniense, UniProt Q8GJ30+Q8GJ31)
# T1 construct: gene pceA; native complex from D. hafniense membranes, DDM-solubilised, SEC into LMNG; no tag; PceA C-terminal domain S486-Q551 present; PceA exported via Tat
# T1 sequence (Q8GJ31 40-551): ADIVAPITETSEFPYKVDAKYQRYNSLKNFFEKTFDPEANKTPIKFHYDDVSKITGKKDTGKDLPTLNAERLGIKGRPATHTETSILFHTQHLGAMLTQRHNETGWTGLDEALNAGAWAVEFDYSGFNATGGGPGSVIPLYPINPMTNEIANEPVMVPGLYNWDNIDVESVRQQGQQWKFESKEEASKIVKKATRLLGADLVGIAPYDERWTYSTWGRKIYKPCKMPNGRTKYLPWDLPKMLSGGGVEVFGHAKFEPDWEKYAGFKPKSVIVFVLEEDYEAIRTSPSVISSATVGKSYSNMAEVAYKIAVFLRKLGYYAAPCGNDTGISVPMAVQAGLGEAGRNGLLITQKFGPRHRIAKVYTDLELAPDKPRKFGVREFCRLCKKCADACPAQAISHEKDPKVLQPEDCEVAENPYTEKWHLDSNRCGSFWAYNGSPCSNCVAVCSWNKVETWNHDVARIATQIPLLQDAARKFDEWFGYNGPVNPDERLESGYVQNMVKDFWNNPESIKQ
# T1 sequence (Q8GJ30 1-105): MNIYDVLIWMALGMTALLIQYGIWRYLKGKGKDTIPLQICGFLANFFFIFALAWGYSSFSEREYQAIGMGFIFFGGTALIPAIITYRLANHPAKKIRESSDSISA
# B1: PceA, catalytic subunit of the tetrachloroethene (PCE) reductive dehalogenase from Desulfitobacterium hafniense strain TCE1 (enzyme, UniProt Q8GJ31 40-551, looked up)
# chain: T1 sequence (Q8GJ31 40-551)
# notes: PceA, catalytic subunit of the PCE reductive dehalogenase, Desulfitobacterium hafniense strain TCE1 (DSM 12704), locus tag DeshaDRAFT_2412; C-terminal domain printed as S486-Q551; Native protein with a cobalamin and two [4Fe-4S] clusters; a menaquinone lies at the interface with PceB; the modelled residues are in PDB 8Q4H; also called DhPceA; RdhA; source: endogenous, D. hafniense strain TCE1: …
# B2: PceB, integral membrane anchor subunit of the PCE reductive dehalogenase from Desulfitobacterium hafniense strain TCE1 (natural protein, UniProt Q8GJ30 1-105, looked up)
# chain: T1 sequence (Q8GJ30 1-105)
# notes: PceB, small integral membrane subunit with three transmembrane helices, encoded in the pceABCT operon of Desulfitobacterium hafniense strain TCE1; also called DhPceB; RdhB; source: endogenous, D. hafniense strain TCE1: DDM-solubilised membrane extract; purified as PceA2B2 complex by size-exclusion chromatography (Superose 6 Increase) for cryo-EM
# Experiments:
# [1] = molecular target: T1, PceA2B2 complex (menaquinol:organohalide oxidoreductase, MOOR; DhPceA / DhPceB); assay: cryo-EM structure, […] A; type: binding; settings: PceA active site / channel, 5.3 A from cobalt; cells grown with PCE
# [2] = molecular target: the molecule itself; assay: native gel or EMSA; Clear-Native PAGE (5-15% gradient, Bis-Tris) of DDM-solubilised membrane extract and soluble fraction, anaerobic; Coomassie and in-gel PCE dehalogenase activity staining; the ~180 kDa band cut out, run on SDS-PAGE as second dimension and analysed by LC-MS/MS
# [3] = molecular target: the molecule itself; assay: cryo-EM structure; native PceA2B2 complex purified from the membrane extract by SEC in 25 mM HEPES-NaOH pH 7.5, 150 mM NaCl, 0.005% LMNG; single-particle analysis, C2 symmetry, 2.83 Å
molecule,measurement,setting,value
"Cl/C=C\Cl [cis-1,2-dichloroethene]","cryo-EM structure, 2.83 A",[1],"density for a dichloroethene (DCE) molecule, the final product of PCE dechlorination"
B1,stoichiometry N,[2],2
B2,binding result,[3],binds
